PMC9841331 (The EMBO Journal, 2023)
Changes are numbered by the printed parent chain. Several values for one entry are separate records, joined by “and”; a condition that tells them apart may be missing. Equal entries are not always repeated.

Tests used:
[1] = target: the molecule itself; test: native gel or EMSA
[2] = target: retromer^mRuby (yeast Vps26/Vps29/Vps35 complex labelled with mRuby) (S. cerevisiae, UniProt P40335 1-379; P38759 1-282; P34110 1-944); test: fluorescence microscopy of recruitment to supported membrane tubes

B1: retromer^mClover (yeast Vps26/Vps29/Vps35 complex carrying mClover-tagged Vps29), wild-type Vps35 (complex, S. cerevisiae)
chain 1: MSIFFKPPIDIEILFDNEESRKHVDIATRSSNSSYKSMKESLPVYEDGESLGGIVTLRVRDSKKVDHLGIKVSVIGSIDMLKSHGSGNSSSKKVTSSTSSSSSNGSVDVRKNSVDQFLCQSYDLCPAGELQHSQSFPFLFRDLSKRYESYKGKNVDVAYYVKVTVMRKSTDISKIKRFWVYLYNSVTTAPNTLSANETKATTNDIAGGNYAADNASDNTQTKSTQGEAADVNQVLPISHSNNEPKPVRLDIGIENCLHIEFEYAKSQYSLKEVIVGRIYFLLTRLRIKHMELSLITRESSGLQTSNVMTDSTAIRYEIMDGSSVKGETIPIRLFLSGYDLTPNMSCNYFNVKNYLSLVIIDEDGRRYFKQSEITLYRTR
chain 2: MLLLALSDAHIPDRATDLPVKFKKLLSVPDKISQVALLGNSTKSYDFLKFVNQISNNITIVRGEFDNGHLPSTKKDKASDNSRPMEEIPMNSIIRQGALKIGCCSGYTVVPKNDPLSLLALARQLDVDILLWGGTHNVEAYTLEGKFFVNPGSCTGAFNTDWPIVFDVEDSDEAVTSEVDKPTKENQSEDDDAKGGSTGKEQPGSYTPKEGTAGERENENESNVKPENQFKEDEVDMSDSDINGSNSPSFCLLDIQGNTCTLYIYLYVNGEVKVDKVVYEKE
chain 3: MAYADSPENAIAVIKQRTALMNRCLSQHKLMESLQHTSIMLTELRNPNLSPKKYYELYVIIFDSLTNLSTYLIENHPQNHHLADLYELVQYTGNVVPRLYLMITVGTSYLTFNEAPKKEILKDMIEMCRGVQNPIRGLFLRYYLSQRTKELLPEDDPSFNSQFIMNNFIEMNKLWVRLQHQGPLRERETRTRERKELQILVGSQLVRLSQIIDDNFQMYKQDILPTILEQVIQCRDLVSQEYLLDVICQVFADEFHLKTLDTLLQTTLHLNPDVSINKIVLTLVDRLNDYVTRQLEDDPNATSTNAYLDMDVFGTFWDYLTVLNHERPDLSLQQFIPLVESVIVLSLKWYPNNFDNLNKLFELVLQKTKDYGQKNISLESEHLFLVLLSFQNSKLQLTSSTTAPPNSPVTSKKHFIFQLISQCQAYKNILALQSISLQKKVVNEIIDILMDREVEEMADNDSESKLHPPGHSAYLVIEDKLQVQRLLSICEPLIISRSGPPANVASSDTNVDEVFFNRHDEEESWILDPIQEKLAHLIHWIMNTTSRKQTMKNKIQFSLEAQLEILLLIKSSFIKGGINVKYTFPAIITNFWKLMRKCRMIQEYLLKKRPDNKTLLSHYSNLLKQMFKFVSRCINDIFNSCNNSCTDLILKLNLQCAILADQLQLNEISYDFFSQAFTIFEESLSDSKTQLQALIYIAQSLQKTRSLYKEAYYDSLIVRCTLHGSKLLKKQDQCRAVYLCSHLWWATEISNIGEEEGITDNFYRDGKRVLECLQRSLRVADSIMDNEQSCELMVEILNRCLYYFIHGDESETHISIKYINGLIELIKTNLKSLKLEDNSASMITNSISDLHITGENNVKASSNADDGSVITDKESNVAIGSDGTYIQLNTLNGSSTLIRGVVATASGSKLLHQLKYIPIHHFRRTCEYIESQREVDDRFKVIYV
[1]
  stoichiometry N: 2 and 4

B2: retromer^PISA-mClover (Vps26/Vps29-mClover/Vps35^PISA) (complex, S. cerevisiae)
chain 1: B1 chain 1
chain 2: B1 chain 2
chain 3: B1 chain 3 with D671A, L722A, K726A, R775A
[1]
  binding result: binds

B3: SNX-BAR complex (yeast sorting nexins Vps5/Vps17) (complex, S. cerevisiae)
chain 1: MDYEDNLEAPVWDELNHEGDKTQSLVSNSIESIGQISTNEERKDNELLETTASFADKIDLDSAPEWKDPGLSVAGNPQLEEHDNSKADDLINSLAPEQDPIADLKNSTTQFIATRESGGALFTGNANSPLVFDDTIYDANTSPNTSKSISGRRSGKPRILFDSARAQRNSKRNHSLKAKRTTASDDTIKTPFTDPLKKAEKENEFVEEPLDDRNERRENNEGKFTASVEKNILEQVDRPLYNLPQTGANISSPAEVEENSEKFGKTKIGSKVPPTEKAVAFKVEVKDPVKVGELTSIHVEYTVISESSLLELKYAQVSRRYRDFRWLYRQLQNNHWGKVIPPPPEKQSVGSFKENFIENRRFQMESMLKKICQDPVLQKDKDFLLFLTSDDFSSESKKRAFLTGSGAINDSNDLSEVRISEIQLLGAEDAAEVLKNGGIDAESHKGFMSISFSSLPKYNEADEFFIEKKQKIDELEDNLKKLSKSLEMVDTSRNTLAASTEEFSSMVETLASLNVSEPNSELLNNFADVHKSIKSSLERSSLQETLTMGVMLDDYIRSLASVKAIFNQRSKLGYFLVVIENDMNKKHSQLGKLGQNIHSEKFREMRKEFQTLERRYNLTKKQWQAVGDKIKDEFQGFSTDKIREFRNGMEISLEAAIESQKECIELWETFYQTNL
chain 2: MTSAVPYDPYDDLDNNPFAEPQEEDSEPAATTTDGSSSMSEERVGTEQTAASVQDNGTANNIQNGLGEEGNATRSKTSNEHNENQQPSQPSERVILPERSDEKKKYTLLAKVTGLERFGSATGKKENPTIIFDCSTNLPTFRKQQYKNVKKSYEEFHQLFKYLNVAIQESFVPTLPSAYTTFGINSEEDRMKVTRNFQLWFNRLSQDPLIIRNEEVAFFIESDFNTYTPINKSKSLASGLKRKTLKQLAPPYDEITELAEFRPLVKSIYVVSQSLQEKLLRVSRNRKMMVQEENAFGQDFVNLDEHNKLYRRYGKILTAVGDIDSIIATMDMATLYDGLEWIVRDAYAVKEALTNRHFIMRNLVQAQQNSKAKQEQARRFRSRRDINPMKIDEALRQLKAAAKNEQVLTLKLQRITSNMIIERKQWISWYEEWIRSSIKEFTLRKIEYERKKLTLLERVRSDIRKADENGGLSRLGRHAVSNNNSDTSQTLKGDSWTGESNRKSQIPINKIAHTEFDDELFTEDDGYNSQDSDTTSLNARHAASLLGMSTK
[2]
  binding result: binds
